Molecular target: GFP–cyclin A (human) (UniProt P20248)
Experiment: fluorescence cross-correlation spectroscopy

Chain of UniProt P20248 (P20248 whole entry): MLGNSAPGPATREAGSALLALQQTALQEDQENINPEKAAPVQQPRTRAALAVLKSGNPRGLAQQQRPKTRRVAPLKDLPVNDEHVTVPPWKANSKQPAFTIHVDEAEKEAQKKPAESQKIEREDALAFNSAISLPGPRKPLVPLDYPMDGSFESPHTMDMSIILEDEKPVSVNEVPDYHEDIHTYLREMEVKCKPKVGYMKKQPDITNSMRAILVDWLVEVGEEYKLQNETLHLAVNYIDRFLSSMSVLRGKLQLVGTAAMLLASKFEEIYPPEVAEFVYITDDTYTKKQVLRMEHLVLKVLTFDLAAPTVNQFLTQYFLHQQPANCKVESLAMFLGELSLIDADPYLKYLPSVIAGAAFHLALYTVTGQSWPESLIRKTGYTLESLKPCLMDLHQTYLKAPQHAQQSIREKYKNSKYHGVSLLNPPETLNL

“mCherry–SAMHD1 (from UniProt Q9Y3Z3 1-626) (natural protein)” was tested, and the cross-correlation was 9.9%.

— publication PMC4345975
